The labels stand for the following.
B1: Fab apu2.06 (Fab, V domains shown)
VH: EVQLVESGGGLVQPGGSLRLSCAASGFNISYSSMHWVRQAPGKGLEWVASIYSYYSYTSYADSVKGRFTISADTSKNTAYLQMNSLRAEDTAVYYCARGYSWFNAIDYWGQGTLVTVSS
VL: DIQMTQSPSSLSASVGDRVTITCRASQSVSSAVAWYQQKPGKAPKLLIYSASSLYSGVPSRFSGSRSGTDFTLTISSLQPEDFATYYCQQSSYSSLITFGQGTKVEIK
B2: Fab apu2.02 (Fab, V domains shown)
VH: EVQLVESGGGLVQPGGSLRLSCAASGFNIFYGGIHWVRQAPGKGLEWVASIYSYYSYTSYADSVKGRFTISADTSKNTAYLQMNSLRAEDTAVYYCARSYSYYSAMDYWGQGTLVTVSS
VL: DIQMTQSPSSLSASVGDRVTITCRASQSVSSAVAWYQQKPGKAPKLLIYSASSLYSGVPSRFSGSRSGTDFTLTISSLQPEDFATYYCQQSSYSSLITFGQGTKVEIK
B3: Fab apu2.07 (Fab, V domains shown)
VH: EVQLVESGGGLVQPGGSLRLSCAASGFNISYSSMHWVRQAPGKGLEWVASIYSYYSYTSYADSVKGRFTISADTSKNTAYLQMNSLRAEDTAVYYCARSYSYHLGMDYWGQGTLVTVSS
VL: DIQMTQSPSSLSASVGDRVTITCRASQSVSSAVAWYQQKPGKAPKLLIYSASSLYSGVPSRFSGSRSGTDFTLTISSLQPEDFATYYCQQSSYSSLITFGQGTKVEIK
B4: Fab apu2.03 (Fab, V domains shown)
VH: EVQLVESGGGLVQPGGSLRLSCAASGFNISYSSMHWVRQAPGKGLEWVASIYSYYSYTSYADSVKGRFTISADTSKNTAYLQMNSLRAEDTAVYYCARSYSYSLAFDYWGQGTLVTVSS
VL: DIQMTQSPSSLSASVGDRVTITCRASQSVSSAVAWYQQKPGKAPKLLIYSASSLYSGVPSRFSGSRSGTDFTLTISSLQPEDFATYYCQQSSYSSLITFGQGTKVEIK
B5: Fab apu2.05 (Fab, V domains shown)
VH: EVQLVESGGGLVQPGGSLRLSCAASGFNISYSSMHWVRQAPGKGLEWVASIYSYYSYTSYADSVKGRFTISADTSKNTAYLQMNSLRAEDTAVYYCARSYSYRMAFDYWGQGTLVTVSS
VL: DIQMTQSPSSLSASVGDRVTITCRASQSVSSAVAWYQQKPGKAPKLLIYSASSLYSGVPSRFSGSRSGTDFTLTISSLQPEDFATYYCQQSSYSSLITFGQGTKVEIK
B6: Fab apu2.01 (Fab, V domains shown)
VH: EVQLVESGGGLVQPGGSLRLSCAASGFNISYSSMHWVRQAPGKGLEWVASIYSYYSYTSYADSVKGRFTISADTSKNTAYLQMNSLRAEDTAVYYCARSYSYSEALDYWGQGTLVTVSS
VL: DIQMTQSPSSLSASVGDRVTITCRASQSVSSAVAWYQQKPGKAPKLLIYSASSLYSGVPSRFSGSRSGTDFTLTISSLQPEDFATYYCQQSSYSSLITFGQGTKVEIK
B7: Fab apu2.04 (Fab, V domains shown)
VH: EVQLVESGGGLVQPGGSLRLSCAASGFNISYSSMHWVRQAPGKGLEWVASIYSYYSYTSYADSVKGRFTISADTSKNTAYLQMNSLRAEDTAVYYCARSYSYSFGMDYWGQGTLVTVSS
VL: DIQMTQSPSSLSASVGDRVTITCRASQSVSSAVAWYQQKPGKAPKLLIYSASSLYSGVPSRFSGSRSGTDFTLTISSLQPEDFATYYCQQSSYSSLITFGQGTKVEIK
B8: Fab apu2.10 (Fab, V domains shown)
VH: EVQLVESGGGLVQPGGSLRLSCAASGFNISYSSMHWVRQAPGKGLEWVASIYSYYSYTSYADSVKGRFTISADTSKNTAYLQMNSLRAEDTAVYYCARSYSYFLAMDYWGQGTLVTVSS
VL: DIQMTQSPSSLSASVGDRVTITCRASQSVSSAVAWYQQKPGKAPKLLIYSASSLYSGVPSRFSGSRSGTDFTLTISSLQPEDFATYYCQQSSYSSLITFGQGTKVEIK
B9: Fab apu2.09 (Fab, V domains shown)
VH: EVQLVESGGGLVQPGGSLRLSCAASGFNISYSSMHWVRQAPGKGLEWVASIYSYYSYTSYADSVKGRFTISADTSKNTAYLQMNSLRAEDTAVYYCARSYSYHVAFDYWGQGTLVTVSS
VL: DIQMTQSPSSLSASVGDRVTITCRASQSVSSAVAWYQQKPGKAPKLLIYSASSLYSGVPSRFSGSRSGTDFTLTISSLQPEDFATYYCQQSSYSSLITFGQGTKVEIK
B10: Fab apu2.08 (Fab, V domains shown)
VH: EVQLVESGGGLVQPGGSLRLSCAASGFNISYSSMHWVRQAPGKGLEWVASIYSYYSYTSYADSVKGRFTISADTSKNTAYLQMNSLRAEDTAVYYCARSYSYSVGMDYWGQGTLVTVSS
VL: DIQMTQSPSSLSASVGDRVTITCRASQSVSSAVAWYQQKPGKAPKLLIYSASSLYSGVPSRFSGSRSGTDFTLTISSLQPEDFATYYCQQSSYSSLITFGQGTKVEIK
B11: Fab apu02 (Fab, V domains shown)
VH: EVQLVESGGGLVQPGGSLRLSCAASGFNVSYSYMHWVRQAPGKGLEWVASISSYYSYTSYADSVKGRFTISADTSKNTAYLQMNSLRAEDTAVYYCARSYSYYSAIDYWGQGTLVTVSS
VL: DIQMTQSPSSLSASVGDRVTITCRASQSVSSAVAWYQQKPGKAPKLLIYSASSLYSGVPSRFSGSRSGTDFTLTISSLQPEDFATYYCQQSSYSSLFTFGQGTKVEIK
B12: Fab apu07 (Fab, V domains shown)
VH: EVQLVESGGGLVQPGGSLRLSCAASGFNLSYSYIHWVRQAPGKGLEWVASISSYYGSTSYADSVKGRFTISADTSKNTAYLQMNSLRAEDTAVYYCARESFYYSPAFDYWGQGTLVTVSS
VL: DIQMTQSPSSLSASVGDRVTITCRASQSVSSAVAWYQQKPGKAPKLLIYSASSLYSGVPSRFSGSRSGTDFTLTISSLQPEDFATYYCQQSYYYSLFTFGQGTKVEIK
B13: Fab apu11 (Fab, V domains shown)
VH: EVQLVESGGGLVQPGGSLRLSCAASGFNVSYYYIHWVRQAPGKGLEWVASISSYYGYTSYADSVKGRFTISADTSKNTAYLQMNSLRAEDTAVYYCARENYWWAIDYWGQGTLVTVSS
VL: DIQMTQSPSSLSASVGDRVTITCRASQSVSSAVAWYQQKPGKAPKLLIYSASSLYSGVPSRFSGSRSGTDFTLTISSLQPEDFATYYCQQSYYYYPITFGQGTKVEIK
B14: Fab apu13 (Fab, V domains shown)
VH: EVQLVESGGGLVQPGGSLRLSCAASGFNVSYYSIHWVRQAPGKGLEWVASIYPYYSYTSYADSVKGRFTISADTSKNTAYLQMNSLRAEDTAVYYCARSYSYSYGLDYWGQGTLVTVSS
VL: DIQMTQSPSSLSASVGDRVTITCRASQSVSSAVAWYQQKPGKAPKLLIYSASSLYSGVPSRFSGSRSGTDFTLTISSLQPEDFATYYCQQYSSSYYPFTFGQGTKVEIK

As usually defined, the Kd is the constant that tells how readily two partners part at equilibrium. Low values mean higher affinity, high ones lower affinity. In general, koff refers to the rate constant with which the complex falls apart. One may read the kon as a measure of how fast the partners come together. High values mean fast association, low ones slow association.

The target of the first test is T1, K48-linked diubiquitin (human, UniProt P0CG48 1-76, isopeptide bond between Lys48 of one ubiquitin and the C-terminal Gly of the other).
T1 construct: Boston Biochem
Description: SPR Biacore, antigen immobilized. Background: SPR reads the build-up and loss of mass on a sensor chip optically.
On to B1, for which the Kd was determined as 1.87 nM, the koff worked out at 0.0024 s⁻¹ and the kon worked out at 1.28e+06 M⁻¹ s⁻¹.
In the same order, the values of B2 are 9.16 nM, 0.0101 s⁻¹ and 1.11e+06 M⁻¹ s⁻¹.
Turning to B3, the Kd was 1.18 nM, the koff came out at 0.00318 s⁻¹ and the kon is 2.7e+06 M⁻¹ s⁻¹.
In the same order, the values of B4 are 3.07 nM, 0.00266 s⁻¹ and 867000 M⁻¹ s⁻¹.
B5 showed a Kd of 5.06 nM, a koff of 0.00609 s⁻¹ and a kon of 1.2e+06 M⁻¹ s⁻¹.
As for B6, binding was characterised by a dissociation constant (Kd) of 23.5 nM, the koff turned out to be 0.0149 s⁻¹ and the kon worked out at 633000 M⁻¹ s⁻¹.
For B7, the affinity, expressed as Kd, was 15.1 nM; the koff is 0.00939 s⁻¹; the association rate constant (kon) was 622000 M⁻¹ s⁻¹.
B8 had a Kd of 1.21 nM, a koff of 0.00399 s⁻¹ and a kon of 3.28e+06 M⁻¹ s⁻¹.
On the same counts, the results for B9 are 6.69 nM, 0.00478 s⁻¹ and 715000 M⁻¹ s⁻¹.
In the same order, the values of B10 are 5.76 nM, 0.00721 s⁻¹ and 1.25e+06 M⁻¹ s⁻¹.

For a further test, the target named is T1, K48-linked diubiquitin. Description: SPR Biacore, antigen immobilized. The source holds these as a separate data set.
On to B11, for which the Kd worked out at 12.7 nM, the koff came to 0.00696 s⁻¹ and the kon was 546000 M⁻¹ s⁻¹.
On the same counts, the results for B12 are 9.49 nM, 0.00993 s⁻¹ and 1.05e+06 M⁻¹ s⁻¹.
On the same counts, the results for B13 are 19.6 nM, 0.0177 s⁻¹ and 904000 M⁻¹ s⁻¹.
For B14, binding was characterised by a dissociation constant (Kd) of 139 nM, the koff was 0.016 s⁻¹ and the kon was 115000 M⁻¹ s⁻¹.
